Source: paper doi:10.1101/2025.09.11.675469
Where two headings read alike, the source gives them in different places.

T1: LIN28A (UniProt Q9H9Z2 1-209)
T1 sequence: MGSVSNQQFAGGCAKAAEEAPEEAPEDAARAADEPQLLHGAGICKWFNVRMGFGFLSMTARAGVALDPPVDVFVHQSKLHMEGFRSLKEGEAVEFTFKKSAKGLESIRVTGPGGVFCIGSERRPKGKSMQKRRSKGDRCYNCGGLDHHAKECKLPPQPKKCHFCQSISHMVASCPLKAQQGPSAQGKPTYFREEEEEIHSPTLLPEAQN


Key:
LIN28A [1] = target: T1, LIN28A; test: EMSA
LIN28A [2] = target: T1, LIN28A; test: EMSA; remark: listed apart in the source

Row | Binder | binding result (LIN28A [1]) | binding result (LIN28A [2])
1 | GGGACAAGUGGUCUGGGACAGGGAGGAGCAAC (structured_RNA) [HOXB9 original] | binds | –
2 | GGGACAAGUGGUCUGGGACAGGGAGGAGCAAC (structured_RNA, one m6A; position marked only by red colour (not recoverable from text)) [HOXB9 m6A] | – | binds
